In test [1] the target is T1, mouse BMP6 (R&D Systems, Cat #6325-BM) (mouse, UniProt P20722 372-510, limits assumed).
T1 construct: Bought protein (R&D Systems 6325-BM or 6325-BM/CF); also called mBMP6
T1 sequence: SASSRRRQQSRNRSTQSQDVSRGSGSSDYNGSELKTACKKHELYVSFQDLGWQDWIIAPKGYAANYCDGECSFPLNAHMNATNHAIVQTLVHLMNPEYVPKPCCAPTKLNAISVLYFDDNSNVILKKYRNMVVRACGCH
In words: SPR (MASS-1), mAb captured on anti-human Fc, mBMP6 in solution, 37 C. On the procedure:
(§1) Equilibrium dissociation constants (KD values) for human and mouse BMP6 binding to purified anti-BMP6 monoclonal antibodies of this invention were determined using a real-time surface plasmon resonance (SPR) biosensor instrument, MASS-1. All binding studies were performed in 10 mM HEPES, 150 mM NaCl, 3 mM EDTA, 1 μg/mL Heparin, and 0.05% v/v Surfactant Tween-20, pH 7.4 (HBS-EHT) running buffer at 25° C. and 37° C. The HCA sensor surface was first derivatized by amine coupling the monoclonal mouse anti-human Fc antibody (GE, #BR100839) and anti-BMP6 monoclonal antibodies were individually captured. Different concentrations of human BMP6 reagents (hBMP6; R&D Systems, Cat #507-BP; 60 nM-0.94 nM; 4-fold serial dilution) or mouse BMP6 (mBMP6; R&D Systems, Cat #6325-BM; 60 nM and 15 nM) prepared in HBS-EHT running buffer were injected over the captured anti-BMP6 monoclonal antibody for 4 minutes at a flow rate of 30 μL/minute, while the dissociation of BMP6 reagent bound to captured anti-BMP6 monoclonal antibody was monitored for 10 minutes in HBS-EHT running buffer. Kinetic association (kₐ) and dissociation (kd) rate constants were determined by fitting the real-time binding sensorgrams to a 1:1 binding model with mass transport limitation using Scrubber 2.0c software. Binding dissociation equilibrium constant (KD) and dissociative half-life (t½) for different anti-BMP6 monoclonal antibodies were calculated from the kinetic rate constants as: […]

Test [2] deals with T1, mouse BMP6 (R&D Systems, Cat #6325-BM). Nature of the test: SPR (MASS-1), mAb captured on anti-human Fc, mBMP6 in solution, 25 C. As for the experimental part:
as §1

In test [3] the target is T2, human BMP6 (R&D Systems, Cat #507-BP) (human, UniProt P22004 375-513, limits assumed).
T2 construct: Bought protein (R&D Systems 507-BP or 507-BP/CF); also called hBMP6; hBMP-6
T2 sequence: T1 sequence with S21A, G23V, G25S, S26A, G31S, K39R
In words: SPR (MASS-1), mAb captured on anti-human Fc, hBMP6 in solution, 25 C. As for the experimental part: as §1

Test [4] concerns the target T1, mouse BMP6 (R&D Systems, Cat #6325-BM). In words: cell-based or functional assay.
In test [5] the target is T2, human BMP6 (R&D Systems, Cat #507-BP). Nature of the test: cell-based or functional assay.
The target is the same in test [6]. Nature of the test: SPR (MASS-1), mAb captured on anti-human Fc, hBMP6 in solution, 37 C. As for the experimental part:
as §1

Test [7] addresses T3, Human BMP9 (human, UniProt Q9UK05 320-429).
T3 sequence (looked up): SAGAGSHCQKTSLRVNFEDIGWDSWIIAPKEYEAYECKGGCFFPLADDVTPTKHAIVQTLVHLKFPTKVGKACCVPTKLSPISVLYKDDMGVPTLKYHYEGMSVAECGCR
Nature of the test: BLI (Octet HTX), mAb captured on Protein A sensor, 100 nM ligand, 25 C. On the procedure:
(§2) Binding cross-reactivity of anti-BMP6 monoclonal antibodies to BMP6 family members, (Human: BMP6, BMP5, BMP7, BMP8A, BMP9, BMP10, BMP12, BMP14, BMP3b, Activin A, and GDF3 and mouse: BMP6 and GDF6) was determined using a real-time Bio-Layer Interferometry (BLI) biosensor using Octet HTX instrument. All binding studies were performed in 10 mM HEPES, 150 mM NaCl, 3 mM EDTA, 1 mg/mL BSA, 50 μg/mL Heparin, and 0.05% v/v Surfactant Tween-20, pH 7.4 (HBS-EBHT) buffer at 25° C. with the plate shaking at a speed of 1000 rpm. To assess binding cross-reactivity, Protein A coated Octet biosensor (Pall ForteBio Corp., #18-5010) was first dipped in wells containing […] of anti-BMP6 monoclonal antibodies for 4 minutes followed by submerging in wells containing 100 nM of different BMP6 family members for 4 minutes. The biosensors were washed in HBS-EBHT buffer in between every step of the experiment. At the end of each cycle, the Protein A biosensor was regenerated using three alternate 5 second dips in 10 mM Glycine pH 2.0 and 10 second dip HBS-EBHT buffer. The real-time binding response was monitored during the course of the experiment and the binding response at the end of every step was recorded and tabulated as shown in Tables 8A and 8B.
(Biolayer interferometry detects binding as a change in optical thickness at a sensor tip.)

The target of test [8] is T1, mouse BMP6 (R&D Systems, Cat #6325-BM). Described as above. On the procedure: as §2
Test [9] has as its target T4, Human BMP8A (human, UniProt Q7Z5Y6 264-402, limits assumed).
T4 sequence (looked up): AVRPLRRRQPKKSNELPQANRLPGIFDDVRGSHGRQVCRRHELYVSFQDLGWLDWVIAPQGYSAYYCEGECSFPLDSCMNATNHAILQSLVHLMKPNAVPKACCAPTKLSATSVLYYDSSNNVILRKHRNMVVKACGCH
The description is as above. As for the experimental part: as §2

Residue numbers refer to the chain shown, from its start.

B1: H4H17871P (antibody, V domains shown)
VH: EVQLVESGGGLVQPGGSLRLSCAASGFTFNNYAMSWVRQAPGKGLEWVSAISGSGDSTYYADSVKGRFTISRDNSKNTLYLQMNSLRAEDTAVYYCAKRSRSSPFDPWGQGTLVTVSS
VL: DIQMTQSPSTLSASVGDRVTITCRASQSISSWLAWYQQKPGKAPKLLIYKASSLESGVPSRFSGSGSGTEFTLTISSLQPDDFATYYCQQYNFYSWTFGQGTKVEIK
notes: Fully human antibody; also called anti-BMP6 monoclonal antibody; BMP6 antibody of the invention
By Kd is commonly meant the free concentration of one partner at which half of the binding sites on the other are occupied at equilibrium, for simple one-to-one binding. Lower therefore signals a tighter complex. The term koff denotes the rate constant with which the complex falls apart. The low end stands for a long-lived complex, the high end for a short-lived complex. The term kon denotes the rate constant with which the complex forms. A low value points to slow association. For B1, the dissociation constant Kd came to 4 nM in [1] and 3.39 nM in test [2]. The koff in [1] amounted to 9.43e-05 s⁻¹; in test [2], 0.000127 s⁻¹; in test [3], 4.14e-05 s⁻¹. For the same molecule, the kon in [1] amounted to 23500 M⁻¹ s⁻¹; in test [2], 37400 M⁻¹ s⁻¹; in [3] it was 283000 M⁻¹ s⁻¹; in [6], 41600 M⁻¹ s⁻¹. The t1/2 in test [1] was 2.05 h; in [2], 1.52 h; in test [3], 4.65 h. The “IC50 [M], inhibition of 5 nM mBMP6 activation of W-20-17/BRE-luc cells (luciferase)” value in [4] worked out at 1.1e-08 M. In [5], the “IC50 [M], inhibition of 1 nM hBMP6 activation of Hep3B/BRE-luc cells (luciferase)” value stood at 1.6e-09 M. Besides, the binding response in [7] turned out to be 0.01 nm; in test [8], 0.09 nm; in [9], 0 nm.

B2: H4H17855P (antibody, V domains shown)
VH: B1 VH with N30S, N31S, D56G, S57R, A61T, I70M, S100P, R101Y, S102N
VL: EIVLTQSPGTLSLSPGEGATLSCRASQSVSSSYLAWYQQKPGQAPRLLIYGASSRATGIPDRFSGSGSGTDFTLTISRLEPEDFVVYYCQHFGGTPFTFGGGTKVEIK
notes: as for B1
As to B2, the Kd in test [1] worked out at 6.46 nM; in test [2], 3.55 nM; in [3], 0.355 nM; in test [6], 1.34 nM. In addition, the koff came out at 0.000154 s⁻¹ in test [1], 0.00013 s⁻¹ in [2] and 6.3e-05 s⁻¹ in [3]. For the same molecule, the kon in [1] was 23800 M⁻¹ s⁻¹; in test [2], 36600 M⁻¹ s⁻¹; in test [3], 178000 M⁻¹ s⁻¹; in test [6], 61100 M⁻¹ s⁻¹. Besides, the t1/2 in test [1] is 1.25 h; in [2] it was 1.48 h; in test [3] it was 3.05 h; in test [6] it was 2.35 h. Besides, the “IC50 [M], inhibition of 5 nM mBMP6 activation of W-20-17/BRE-luc cells (luciferase)” value in test [4] is 1.9e-09 M. The “IC50 [M], inhibition of 1 nM hBMP6 activation of Hep3B/BRE-luc cells (luciferase)” value in test [5] stood at 2.5e-10 M. Moreover, the binding response was 0 nm in test [7], 0.09 nm in test [8] and -0.02 nm in [9].

The values above are taken from patent publication US20220251184A1 (Regeneron, published 2022).
